Laboratory results from article PMC2879510.

Biological target: U1A-Myc-His (UniProt P09012 1-102)
Assay: competition

Sequence of U1A-Myc-His (P09012 1-102): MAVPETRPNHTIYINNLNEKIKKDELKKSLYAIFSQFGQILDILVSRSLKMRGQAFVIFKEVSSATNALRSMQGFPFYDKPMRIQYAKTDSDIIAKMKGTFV

GGCAUAUCCAGUGCACCAGGGUAUGCC (structured_RNA) [hpIIΔDIS (U1 hpII Δ16/18A/10G)]: binds.
